These results are taken from article doi:10.1101/2023.03.09.531992 (bioRxiv, 2023).

Assay [1] addresses T1, S. cerevisiae β’WD40 domain (N-terminal WD40 domain of β’-COPI), wild type (S. cerevisiae, UniProt P41811 1-300).
T1 sequence: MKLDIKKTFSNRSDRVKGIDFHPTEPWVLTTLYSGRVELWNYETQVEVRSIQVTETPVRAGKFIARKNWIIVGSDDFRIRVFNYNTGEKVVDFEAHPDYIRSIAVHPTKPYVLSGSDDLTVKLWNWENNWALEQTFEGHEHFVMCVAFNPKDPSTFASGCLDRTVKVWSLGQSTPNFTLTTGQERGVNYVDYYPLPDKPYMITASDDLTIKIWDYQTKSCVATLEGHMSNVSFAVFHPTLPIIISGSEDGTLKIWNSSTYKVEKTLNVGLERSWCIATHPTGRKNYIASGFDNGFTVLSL
Nature of the assay: crystal structure.

Assay [2] deals with T2, S. pombe αWD40 domain (N-terminal WD40 domain of α-COPI), wild type (S. pombe, UniProt Q96WV5 1-327).
T2 sequence: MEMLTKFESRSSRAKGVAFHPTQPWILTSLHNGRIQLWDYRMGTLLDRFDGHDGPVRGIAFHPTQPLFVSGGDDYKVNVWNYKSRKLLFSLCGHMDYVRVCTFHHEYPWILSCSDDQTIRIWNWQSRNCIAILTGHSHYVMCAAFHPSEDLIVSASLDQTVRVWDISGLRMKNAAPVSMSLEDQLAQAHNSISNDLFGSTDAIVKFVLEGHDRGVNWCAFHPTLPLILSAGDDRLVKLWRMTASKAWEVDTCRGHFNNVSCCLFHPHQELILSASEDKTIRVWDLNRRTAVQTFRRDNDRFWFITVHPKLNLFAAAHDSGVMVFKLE
Nature of the assay: NMR titration.

For GVKLHYT [wild-type SARS-CoV-2 S tail heptapeptide (residues 1267-1273), as co-crystallised], the binding result in assay [1] is “binds”.

B1: 15N-labeled wild-type SARS-CoV-2 S C-terminal tail 21-mer peptide (NMR) (peptide)
peptide: not shown
modifications: 15N isotope label
Turning to B1, the binding result in assay [2] was “binds”.
